Data on six molecules can be found in patent US20220389111A1 (SHANGHAI EPIMAB BIOTHERAPEUTICS, published 2022).

Positions count from the first letter of the chain named. Names may count otherwise. Where two headings read alike, the source gives them in different places.

The target in assay [1] is T1, cynomolgus monkey CD39 on CHO-K1 cells (cynomolgus monkey, UniProt A0A7N9DGH8 1-510).
T1 construct: whole, on cells; also called CHO-K1-cyCD39; CHO-K1-cyno CD39
T1 sequence: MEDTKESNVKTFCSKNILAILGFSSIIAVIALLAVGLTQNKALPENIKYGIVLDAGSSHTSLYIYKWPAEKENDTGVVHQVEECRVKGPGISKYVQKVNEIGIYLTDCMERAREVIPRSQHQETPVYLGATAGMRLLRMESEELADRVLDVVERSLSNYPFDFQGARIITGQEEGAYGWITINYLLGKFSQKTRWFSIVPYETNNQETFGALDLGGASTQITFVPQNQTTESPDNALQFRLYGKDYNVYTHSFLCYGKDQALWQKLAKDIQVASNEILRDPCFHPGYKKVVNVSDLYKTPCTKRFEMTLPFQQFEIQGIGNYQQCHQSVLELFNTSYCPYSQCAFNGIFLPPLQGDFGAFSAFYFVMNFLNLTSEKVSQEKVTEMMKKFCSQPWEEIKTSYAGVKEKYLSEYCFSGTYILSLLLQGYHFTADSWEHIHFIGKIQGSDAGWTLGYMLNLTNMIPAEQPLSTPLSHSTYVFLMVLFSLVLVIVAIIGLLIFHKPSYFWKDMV
Nature of the assay: FACS on CHO-K1-cyno CD39 cells. How it is done:
(§1) The ability of the purified antibodies to bind to cell membrane human CD39, cynomolgus monkey CD39, or mouse CD39 was determined by FACS analysis. CHO-K1 cells stably transfected to overexpress human CD39, cynomolgus monkey CD39, or mouse CD39 (CHO-K1-huCD39 cells, CHO-K1-cyCD39 cells, and CHOK1-muCD39 cells) were generated for use in this assay. Briefly, SK-MEL-28 melanoma cells (ATCC) or CD39 overexpressing stable CHO cell lines were resuspended in PBS containing 2% FBS (FACS buffer) and seeded at 1-5×10⁵ cells/well into U-bottomed plates. Anti-CD39 mAbs or isotype control antibodies diluted in FACS buffer were added to the wells and incubated for 1 hour at 4° C. After washing with FACS buffer, 1:1000 diluted Fluorescence-labeled secondary antibody (Life Technologies/ThermoFisher Scientific) were added and incubated for 30 min. at 4° C. Unbound secondary mAb was removed by washing with FACS buffer three times, and the samples were then read on a FACS instrument. The data were processed by GraphPad software.

The target of assay [2] is T2, human CD39 on the cell membrane (CHO-K1-human CD39 stable cell line); SK-MEL-28 melanoma cells; human CD4+ T … (human, UniProt P49961 1-510).
T2 construct: Overexpressed on CHO-K1 cells or endogenous on SK-MEL-28 / T cells; the assay field says which cells; also called huCD39; CHO-K1-huCD39
T2 sequence: T1 sequence with I47V, Y94F, I221V, T230I, V329I, N368K, S391A, V489F, I490T
Nature of the assay: FACS on CHO-K1-human CD39 cells. The protocol:
as §1

For assay [3], the target named is T2, human CD39 on the cell membrane …. The experiment in a line: cell-based or functional assay.
Assay [4] has the same target. The experiment in a line: cell-based or functional assay. The source holds these as a separate data set.
In assay [5] the target is T3, huCD39-ECD-His (human, UniProt P49961 38-478).
T3 construct: also called C-terminally hexahistidine-tagged human CD39 extracellular domain
T3 sequence: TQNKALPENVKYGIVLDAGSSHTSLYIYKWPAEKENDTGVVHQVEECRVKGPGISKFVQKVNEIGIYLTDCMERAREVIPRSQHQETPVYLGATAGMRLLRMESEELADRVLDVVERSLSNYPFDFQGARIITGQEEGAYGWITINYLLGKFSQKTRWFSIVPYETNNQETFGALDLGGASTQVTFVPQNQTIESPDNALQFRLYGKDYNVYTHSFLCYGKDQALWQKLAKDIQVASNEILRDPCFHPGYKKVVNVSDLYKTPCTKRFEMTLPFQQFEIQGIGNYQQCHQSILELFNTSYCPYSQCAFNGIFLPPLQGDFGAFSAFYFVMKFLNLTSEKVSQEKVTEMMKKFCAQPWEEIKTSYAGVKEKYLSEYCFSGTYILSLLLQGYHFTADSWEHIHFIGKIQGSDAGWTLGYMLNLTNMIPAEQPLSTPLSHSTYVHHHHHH
Nature of the assay: SPR (Biacore T200), antibody captured by anti-mouse IgG Fc, antigen in solution. How it is done:
The binding kinetics of purified antibodies was determined by surface plasmon resonance-based measurements using a Biacore T200 instrument (GE Healthcare). Briefly, goat anti-mouse IgG Fc polyclonal antibody (Genway) was directly immobilized across a biosensor chip, and antibody samples were injected over reaction matrices at a flow rate of 5 μl/min. The association and dissociation rate constants, kₒₙ (M⁻¹s⁻¹) and koff(s⁻¹), respectively, were determined by making kinetic binding measurements of anti-CD39 antibody capture at five different concentrations of a recombinant human or mouse CD39 target protein (huCD39-ECD-His or muCD39-ECD-His). The equilibrium dissociation constant KD (M) of the reaction between antibodies and related target proteins was then calculated from the kinetic rate constants using the formula: KD=koff/kₒₙ. Binding affinities for murine anti-human CD39 antibodies mAb635 and mAb638 are shown in Table 9; binding affinity for rat anti-mouse CD39 antibody mAb605 is shown in Table 10.
For orientation: In SPR one partner is held on a chip, and binding of the other changes the refractive index at the surface.

For assay [6], the target named is T3, huCD39-ECD-His. Nature of the assay: BLI (Octet RED96), antibody captured on AMC biosensor, antigen in solution. How it is done:
(§2) Anti-CD39 antibodies were characterized for affinities and binding kinetics using the Octet®RED96 biolayer interferometry system (Pall FortéBio LLC). Purified anti-CD39 antibodies were captured by Anti-Mouse IgG Fc Capture (AMC) biosensors or Anti-Human IgG Fc Capture (AHC) biosensors at a concentration of 100 nM for 30 seconds. Biosensors were then dipped into running buffer (1X pH7.2 PBS, 0.05% Tween 20, 0.1% BSA) for 60 seconds to check baseline. Binding was measured by dipping sensors into purified recombinant human CD39 protein, 3-fold serial diluted from 200 nM, for 120 seconds. Dissociation was followed by dipping sensors into running buffer for 600 seconds. The association and dissociation curves were fitted to a 1:1 Langmuir binding model using Fortebio Data Analysis software (Pall FortéBio LLC).
(In general: BLI is a label-free optical method that tracks binding on a fibre tip over time.)

In assay [7] the target is T1, cynomolgus monkey CD39 on CHO-K1 cells. Nature of the assay: FACS on CHO-K1-cyno CD39 cells. How it is done:
as §1
(§3) Accordingly, a G55A mutation was introduced in the CDR-H2 in HuEM0004-38-17, -18, and -19 to generate HuEM0004-38-21 (SEQ ID NO:32 (VH) and SEQ ID NO:17 (VK)), HuEM0004-38-22 (SEQ ID NO:33 (VH) and SEQ ID NO:17 (VK)), and HuEM0004-38-23 (SEQ ID NO:34 (VH) and SEQ ID NO:17 (VK)). The three humanized anti-CD39 antibodies were characterized by FACS binding assay and for cell-based inhibition of ATPase activity.
This is another data set of the same source.

Assay [8] addresses T3, huCD39-ECD-His. The experiment in a line: BLI (Octet RED96), antibody captured on AHC biosensor, antigen in solution. The protocol:
as §2

Assay [9] addresses T2, human CD39 on the cell membrane …. The experiment in a line: FACS on SK-MEL-28 cells (endogenous human CD39). How it is done: as §1, §3
Assay [10] has the same target. The experiment in a line: FACS on CHO-K1-human CD39 cells. The protocol: as §1, §3
The source holds these as a separate data set.

Assay [11] shares this target. The experiment in a line: cell-based or functional assay. This is another data set of the same source.

B1: mAb636 (antibody, V domains shown)
VH: QVQLQQPGTELVMPGASVTLSCKASGYSFISYWMHWVKQRPGQGLEWIGEIDPSDDYTNYNQNFKGKATLTVDRSSSTAYMQLNSLTSEDSAVYYCAREENGIYYYNKGYLDVWGTGTTVTVSS
VL: DIVMTQTAFSNPVTLGTSASISCRSSKSLLHSNGITYLYWYLQKPGQSPQVLIYQMSNLASGVPDRFSCSGSGTDFTLRITRVEAEDVGFYYCAQNLELPYTFGGGTKLEMK
notes: mouse anti-human CD39 hybridoma mAb, IgG2a, κ
Turning to B1, the EC50 (in general, the concentration giving half of the maximal effect) in [1] is 10.6 nM; in assay [2], 12.7 nM.

B2: mAb629 (antibody, V domains shown)
VH: QVQLKQSGPGLVRPSQSLSITCTVSGFSLTRFGIHWVRQSPGKGLEWLGVIWGGGSTDYDAGFISRLTITKDHSKSQVLFKINSLEADDTAMYYCATKDDDYLEAWFAHWGQGTLVTVSA
VL: NIVMTQSPKSVSMSVGERVTLSCKASENVGTYVSWYQQKSERSPRLLIYGASSRYTGVPDRFTGSGSATDFTLTISSVQAEDLADYHCGQSYSYPYTFGGGTKLEIK
notes: as for B1
As for B2, the EC50 in [1] is 2.18 nM; in assay [2], 1.92 nM. The “IC50 (read off the curve), cell-surface huCD39 ATPase activity” value in assay [3] is ~0.07 nM.

B3: mAb638 (antibody, V domains shown)
VH: QVQLQQPGTELVKPGASVKLSCKASGYTFTSFWMHWVKQRPGQGLEWIGNINPRNGATKYNEKFRSKVTLTADKTSSTAYMHLSSLTSEDSAVYYCAREDYDEIYYAMDSWGQGTSVTVSS
VL: QNVLTQSPAIMSASPGEKVTMTCSASSSVIYMYWFQQKPGSSPRVLIYDTSNLASGVPARFSGSGSGTSYSLTISRMEAEDAATYYCQQWSTYPLTFGAGTKLELK
notes: mouse anti-human CD39 hybridoma mAb, IgG1, κ
Regarding B3, the concentration giving a half-maximal response (EC50) in assay [1] was 19.2 nM; in [2] it was 3.34 nM. Further, the “IC50 (read off the curve), cell-surface hCD39 ATPase activity” value (“IC50 … cell-surface hCD39 ATPase activity” for short) in [4] is ~0.4 nM. Further, the values for the Kd in assay [5] and in assay [6] were 0.203 nM and 2.27 nM, respectively. Also, the koff (usually a measure of how fast the partners let go of each other) in assay [5] was 0.000117 s⁻¹; in assay [6], 0.000426 s⁻¹. Also, the results for the kon in assay [5] and in assay [6] were 574000 M⁻¹ s⁻¹ and 188000 M⁻¹ s⁻¹, respectively. For the same molecule, in [3], the “IC50 (read off the curve), cell-surface huCD39 ATPase activity” value is ~0.4 nM.

B4: HuEM0004-38-22 (antibody, human IgG1, kappa, L234A L235A, V domains shown)
VH: EVQLVQSGAEVKKPGASVKVSCKASGYTFTSFWMHWVRQAPGQGLEWMGNINPRNAATKYNEKFRSRVTLTADKSISTAYMELSRLRSDDTAVYYCAREDYDEIYYAMDSWGQGTTVTVSS
VL: ENVLTQSPATLSLSPGERATLSCSASSSVIYMYWFQQKPGQSPRVLIYDTSNLASGVPARFSGSGSGTDYTLTISSLEPEDFAVYYCQQWSTYPLTFGQGTKLEIKR
notes: humanized mAb638 with G55A
For B4, the EC50 in assay [7] turned out to be 7.42 nM; in assay [9] it was 4.71 nM; in assay [10], 7.21 nM. In addition, the Kd (as a rule, the free concentration of one partner at which half of the binding sites on the other are occupied at equilibrium, for simple one-to-one binding) in [8] stood at 2.53 nM. In addition, the koff in assay [8] was determined as 0.000348 s⁻¹. Also, the kon (in general, a measure of how fast the partners come together) in [8] worked out at 138000 M⁻¹ s⁻¹. Also, the “IC50 … cell-surface hCD39 ATPase activity” value in assay [4] is ~0.2 nM. Also, in assay [11], the “cell-based CD39 ATPase inhibition assay (SK-MEL-28 cells), concentration of essentially complete inhibition” value (“cell-based CD39 ATPase inhibition assay” for short) was ~1 nM.

B5: HuEM0004-38-23 (antibody, human IgG1, kappa, L234A L235A, V domains shown)
VH: B4 VH with M48I
VL: B4 VL
notes: humanized mAb638 with G55A
Take B5: the EC50 in assay [7] came out at 7.18 nM. For the same molecule, in assay [8], binding was put at a Kd of 2.55 nM, the koff is 0.000365 s⁻¹ and the kon is 143000 M⁻¹ s⁻¹. Moreover, the EC50 in [9] worked out at 5.47 nM. In addition, the “IC50 … cell-surface hCD39 ATPase activity” value in [4] was ~0.2 nM. In addition, in [10], the response was half-maximal at 8.36 nM (EC50). Further, the “cell-based CD39 ATPase inhibition assay” value in assay [11] was ~1 nM.

B6: HuEM0004-38-21 (antibody, human IgG1, kappa, L234A L235A, V domains shown)
VH: B4 VH with L70M
VL: B4 VL
notes: humanized mAb638 with G55A
As for B6, the results for the EC50 in [7], in assay [9] and in [10] were 6.14 nM, 4.75 nM and 6.34 nM, respectively. In assay [8], the Kd stood at 2.28 nM. In assay [8], this molecule came in with a koff of 0.000316 s⁻¹. Besides, the kon in assay [8] came out at 139000 M⁻¹ s⁻¹. The “IC50 … cell-surface hCD39 ATPase activity” value in [4] was ~0.2 nM. In addition, the “cell-based CD39 ATPase inhibition assay” value in assay [11] is ~1 nM.
